Data published in the Immune Epitope Database (IEDB).

Legend:
HLA-B*53:01 = assay: IEDB peptide-MHC binding, purified MHC/competitive/fluorescence; filed as Kd, often an IC50 or EC50 that approximates it; ≥ and ≤ were set here for values at or beyond the usual limits of such assays; conditions: source organism: Burkholderia mallei SAVP1
HLA-B*58:01 = assay: as above; conditions: source organism: Burkholderia mallei SAVP1
HLA-B*44:02 = assay: as above; conditions: source organism: Burkholderia mallei SAVP1
HLA-B*40:01 = assay: as above; conditions: source organism: Burkholderia mallei SAVP1
HLA-B*08:01 = assay: as above; conditions: source organism: Burkholderia mallei SAVP1
HLA-B*83:01 = assay: as above; conditions: source organism: Burkholderia mallei SAVP1
HLA-B*45:06 = assay: as above; conditions: source organism: Burkholderia mallei SAVP1
HLA-B*07:02 = assay: as above; conditions: source organism: Burkholderia mallei SAVP1
HLA-A*11:01 = assay: as above; conditions: source organism: Burkholderia mallei SAVP1
HLA-A*30:02 = assay: as above; conditions: source organism: Burkholderia mallei SAVP1
HLA-A*01:01 = assay: as above; conditions: source organism: Burkholderia mallei SAVP1
HLA-B*15:42 = assay: as above; conditions: source organism: Burkholderia mallei SAVP1
HLA-A*24:03 = assay: IEDB peptide-MHC binding, purified MHC/direct/fluorescence; filed as Kd, often an IC50 or EC50 that approximates it; ≥ and ≤ were set here for values at or beyond the usual limits of such assays; conditions: source organism: Burkholderia mallei ATCC 23344
HLA-B*18:01 = assay: as above; conditions: source organism: Burkholderia mallei ATCC 23344
HLA-A*68:02 = assay: as above; conditions: source organism: Burkholderia mallei ATCC 23344
HLA-B*46:01 = assay: as above; conditions: source organism: Burkholderia mallei ATCC 23344
HLA-B*27:03 = assay: as above; conditions: source organism: Burkholderia mallei ATCC 23344
HLA-B*39:01 = assay: as above; conditions: source organism: Burkholderia mallei ATCC 23344
HLA-B*57:01 = assay: as above; conditions: source organism: Burkholderia mallei ATCC 23344
HLA-B*14:02 = assay: as above; conditions: source organism: Burkholderia mallei ATCC 23344
HLA-A*29:02 = assay: as above; conditions: source organism: Burkholderia mallei ATCC 23344
HLA-B*15:01 = assay: as above; conditions: source organism: Burkholderia mallei ATCC 23344
HLA-B*51:01 = assay: as above; conditions: source organism: Burkholderia mallei ATCC 23344

Measured: Kd

MVFGRFSFA
1.5 µM: HLA-A*11:01
≥ 20 µM: HLA-A*30:02 | HLA-A*24:03 | HLA-B*18:01 | HLA-B*46:01 | HLA-B*27:03 | HLA-B*39:01 | HLA-B*57:01 | HLA-B*15:01 | HLA-B*51:01
1.18 µM: HLA-B*14:02
≤ 0.001 µM: HLA-A*68:02
0.192 µM: HLA-A*29:02
≥ 5 µM: all other assays above
